Reference: patent publication US20170355771A1 (Biogen, published 2017)

What was measured:
[1] = target: T1, biotinylated human GPIIb/IIIa ectodomain protein (human, UniProt P08514 32-993; P05106 27-718, biotinylated (site not stated)); assay: SPR, biotinylated GPIIb/IIIa ectodomain on streptavidin chip, fusion protein as analyte, 1:1 model
T1 construct: extracellular domain; also called purified GPIIb/IIIa

[2] = target: T1, biotinylated human GPIIb/IIIa …; assay: surface plasmon resonance, biotinylated GPIIb/IIIa ectodomain on a streptavidin chip, analyte at 6.2 to 500 nM, 1:1 binding model
Text: The GPIIb/IIIa ectodomain protein was immobilized on an SPR chip coated with streptavidin (GE Healthcare).

[3] = target: T1, biotinylated human GPIIb/IIIa …; assay: SPR, biotinylated GPIIb/IIIa ectodomain on streptavidin chip, Fab as analyte, 1:1 model
Experimental: The GPIIb/IIIa ectodomain protein was immobilized on an SPR chip coated with streptavidin (GE Healthcare). Next, the association and dissociation rates of Fab binding to GPIIb/IIIa at sequentially increasing concentrations of the Fab were measured following methods known in the art. The kinetic parameters were derived from a 1:1 binding model.

[4] = target: T2, GPIIb/IIIa (SEQ ID NOs: 23 and 24) (human, UniProt P08514 32-994; P05106 27-716); assay: Bio-Layer Interferometry (OctetRed), monovalent format, yeast-purified Fab; apparent monovalent affinity
T2 construct: also called GPIIb/IIIa complex
Experimental: (§1) BLI was performed on the OctetRed94 instrument, manufactured by ForteBio, according to standard procedures.

[5] = target: T2, GPIIb/IIIa (SEQ ID NOs: 23 and 24); assay: Bio-Layer Interferometry (OctetRed), monovalent format, yeast-purified Fab; apparent dissociation rate Kdis
Experimental: as §1

T2 sequence (P08514 32-994 limits assumed, chain 1 of 2): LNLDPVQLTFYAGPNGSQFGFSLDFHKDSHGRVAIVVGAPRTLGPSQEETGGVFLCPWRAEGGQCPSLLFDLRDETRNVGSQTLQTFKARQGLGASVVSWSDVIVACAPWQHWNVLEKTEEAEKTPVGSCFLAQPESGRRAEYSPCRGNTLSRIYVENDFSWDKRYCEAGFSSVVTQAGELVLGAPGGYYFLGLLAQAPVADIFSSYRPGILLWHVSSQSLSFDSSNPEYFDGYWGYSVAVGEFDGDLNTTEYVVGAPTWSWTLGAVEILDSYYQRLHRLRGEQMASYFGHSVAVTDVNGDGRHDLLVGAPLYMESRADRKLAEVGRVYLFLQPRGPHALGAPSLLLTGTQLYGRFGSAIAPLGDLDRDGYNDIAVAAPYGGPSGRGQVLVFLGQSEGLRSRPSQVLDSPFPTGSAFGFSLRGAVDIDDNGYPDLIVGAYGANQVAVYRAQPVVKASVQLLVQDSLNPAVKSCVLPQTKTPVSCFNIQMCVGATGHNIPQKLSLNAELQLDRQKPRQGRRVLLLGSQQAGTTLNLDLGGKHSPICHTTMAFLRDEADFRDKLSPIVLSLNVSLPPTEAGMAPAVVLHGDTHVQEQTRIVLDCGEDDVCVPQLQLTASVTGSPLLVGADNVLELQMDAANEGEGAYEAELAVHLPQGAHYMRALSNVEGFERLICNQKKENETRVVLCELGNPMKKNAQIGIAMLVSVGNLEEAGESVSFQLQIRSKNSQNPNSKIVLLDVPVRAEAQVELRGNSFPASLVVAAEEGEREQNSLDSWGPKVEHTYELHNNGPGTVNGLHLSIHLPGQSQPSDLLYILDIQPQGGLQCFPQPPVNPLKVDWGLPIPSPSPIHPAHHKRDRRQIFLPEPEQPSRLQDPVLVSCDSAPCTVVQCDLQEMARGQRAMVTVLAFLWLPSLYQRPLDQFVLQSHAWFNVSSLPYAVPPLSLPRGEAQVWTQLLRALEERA
T2 sequence (P05106 27-716 limits assumed, chain 2 of 2): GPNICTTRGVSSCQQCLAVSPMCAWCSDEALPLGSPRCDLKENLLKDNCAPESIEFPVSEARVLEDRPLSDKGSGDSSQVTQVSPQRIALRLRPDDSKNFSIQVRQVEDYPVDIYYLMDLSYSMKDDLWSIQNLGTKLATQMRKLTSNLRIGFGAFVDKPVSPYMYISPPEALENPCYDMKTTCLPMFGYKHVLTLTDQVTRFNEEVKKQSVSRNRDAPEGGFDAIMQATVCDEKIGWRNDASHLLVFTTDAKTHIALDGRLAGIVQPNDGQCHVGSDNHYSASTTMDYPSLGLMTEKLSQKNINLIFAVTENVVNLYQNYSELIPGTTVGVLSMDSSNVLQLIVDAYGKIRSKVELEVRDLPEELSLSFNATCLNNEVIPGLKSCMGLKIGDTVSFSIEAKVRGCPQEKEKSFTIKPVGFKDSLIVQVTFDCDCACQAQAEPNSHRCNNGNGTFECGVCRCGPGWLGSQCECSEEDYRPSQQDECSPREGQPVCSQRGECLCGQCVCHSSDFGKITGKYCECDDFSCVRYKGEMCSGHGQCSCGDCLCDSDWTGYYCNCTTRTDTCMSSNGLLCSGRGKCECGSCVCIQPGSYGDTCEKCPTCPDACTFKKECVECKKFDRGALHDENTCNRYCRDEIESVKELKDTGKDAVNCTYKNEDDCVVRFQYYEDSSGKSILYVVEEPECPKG
T1 sequence (P08514 32-993, chain 1 of 2): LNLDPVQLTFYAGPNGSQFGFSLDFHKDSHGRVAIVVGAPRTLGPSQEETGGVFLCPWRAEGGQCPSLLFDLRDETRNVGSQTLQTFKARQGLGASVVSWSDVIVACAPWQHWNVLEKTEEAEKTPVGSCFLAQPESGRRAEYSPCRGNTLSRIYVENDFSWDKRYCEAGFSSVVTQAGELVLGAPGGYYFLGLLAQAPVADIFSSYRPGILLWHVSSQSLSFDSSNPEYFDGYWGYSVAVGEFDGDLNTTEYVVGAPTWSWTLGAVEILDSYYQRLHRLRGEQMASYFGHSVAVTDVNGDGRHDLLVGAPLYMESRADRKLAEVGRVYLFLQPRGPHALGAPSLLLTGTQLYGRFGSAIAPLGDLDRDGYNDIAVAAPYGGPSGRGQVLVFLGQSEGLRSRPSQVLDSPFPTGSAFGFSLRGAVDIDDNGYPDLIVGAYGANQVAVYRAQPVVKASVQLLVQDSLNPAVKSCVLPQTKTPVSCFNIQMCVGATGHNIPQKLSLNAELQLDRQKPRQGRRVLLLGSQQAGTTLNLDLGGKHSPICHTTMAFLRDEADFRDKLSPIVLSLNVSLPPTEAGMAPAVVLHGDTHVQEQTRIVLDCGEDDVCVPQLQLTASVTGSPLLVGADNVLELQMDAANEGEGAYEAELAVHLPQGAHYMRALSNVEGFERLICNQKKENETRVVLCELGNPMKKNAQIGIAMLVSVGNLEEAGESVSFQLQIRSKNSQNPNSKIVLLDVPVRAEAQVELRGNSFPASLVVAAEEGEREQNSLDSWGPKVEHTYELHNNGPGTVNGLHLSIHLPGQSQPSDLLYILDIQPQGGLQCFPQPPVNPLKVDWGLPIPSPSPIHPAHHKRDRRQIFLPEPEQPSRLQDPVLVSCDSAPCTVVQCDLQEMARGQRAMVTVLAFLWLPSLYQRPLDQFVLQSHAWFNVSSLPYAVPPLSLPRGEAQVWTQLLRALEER
T1 sequence (P05106 27-718, chain 2 of 2): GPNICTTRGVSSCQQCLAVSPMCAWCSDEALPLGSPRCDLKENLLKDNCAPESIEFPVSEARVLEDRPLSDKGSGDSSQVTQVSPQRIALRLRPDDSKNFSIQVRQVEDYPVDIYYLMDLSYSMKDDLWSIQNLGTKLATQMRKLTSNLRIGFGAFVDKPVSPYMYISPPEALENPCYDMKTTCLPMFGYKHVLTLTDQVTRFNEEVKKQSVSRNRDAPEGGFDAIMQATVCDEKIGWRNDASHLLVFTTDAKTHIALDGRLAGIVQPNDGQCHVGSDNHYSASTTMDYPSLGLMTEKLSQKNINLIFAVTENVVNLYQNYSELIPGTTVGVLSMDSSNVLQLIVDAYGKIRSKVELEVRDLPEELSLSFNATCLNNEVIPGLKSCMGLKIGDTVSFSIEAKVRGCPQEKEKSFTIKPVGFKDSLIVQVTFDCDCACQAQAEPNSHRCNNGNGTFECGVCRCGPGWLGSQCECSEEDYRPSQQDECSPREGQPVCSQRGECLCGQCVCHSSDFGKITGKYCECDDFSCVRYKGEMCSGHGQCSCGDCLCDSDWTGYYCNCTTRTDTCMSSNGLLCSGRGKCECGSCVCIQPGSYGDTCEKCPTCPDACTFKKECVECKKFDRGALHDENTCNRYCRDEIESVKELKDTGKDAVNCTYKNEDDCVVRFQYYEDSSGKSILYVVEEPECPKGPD

B1: FVII-250/Fab-062 (other)
chain: ANAFLEELRPGSLERECKEEQCSFEEAREIFKDAERTKLFWISYSDGDQCASSPCQNGGSCKDQLQSYICFCLPAFEGRNCETHKDDQLICVNENGGCEQYCSDHTGTKRSCRCHEGYSLLADGVSCTPTVEYPCGKIPILEKRNASKPQGRIVGGKVCPKGECPWQVLLLVNGAQLCGGTLINTIWVVSAAHCFDKIKNWRNLIAVLGEHDLSEHDGDEQSRRVAQVIIPSTYVPGTTNHDIALLRLHQPVVLTDHVVPLCLPERTFSERTLAFVRFSLVSGWGQLLDRGATALELMVLNVPRLMTQDCLQQSRKVGDSPNITEYMFCAGYSDGSKDSCKGDSGGPHATHYRGTWYLTGIVSWGQGCATVGHFGVYTRVSQYIEWLQKLMRSEPRPGVLLRAPFPGGGGSGGGGSGGGGSGGGGSGGGGSGGGGSEIVMTQSPATLSVSPGERATLSCRASSSVNYMYWYQQKPGQAPRLLIYYTSNLAPGIPARFSGSGSGTEFTLTISSLQSEDFAVYYCQQFSSSPWTFGQGTKVEIKRTVAAPSVFIFPPSDEQLKSGTASVVCLLNNFYPREAKVQWKVDNALQSGNSQESVTEQDSKDSTYSLSSTLTLSKADYEKHKVYACEVTHQGLSSPVTKSFNRGEC
heavy: EGTSESATPESGPGSEPATSGSETPGTSESATPESGPGSEPATSGSETPGTSESATPESGPGTSTEPSEGSAPGSPAGSPTSTEEGTSESATPESGPGSEPATSGSETPGTSESATPESGPGSPAGSPTSTEEGSPAGSPTSTEEGTSTEPSEGSAPGTSESATPESGPGTSESATPESGPGTSESATPESGPGSEPATSGSETPGSEPATSGSETPGSPAGSPTSTEEGTSTEPSEGSAPGTSTEPSEGSAPGSEPATSGSETPGTSESATPESGPGTSTEPSEGSAPEVQLVESGGGLVKPGGSLRLSCAASGFTFSAYAMSWVRQAPGKGLVWVASISSGGTTYYPDSVKRQFTISRDNAKNTLYLQMNSLRAEDTAVYYCTRGGDYGYALDYWGQGTLVTVSSASTKGPSVFPLAPSSKSTSGGTAALGCLVKDYFPEPVTVSWNSGALTSGVHTFPAVLQSSGLYSLSSVVTVPSSSLGTQTYICNVNHKPSNTKVDKKVEPKSC
notes: also called Fab-250/Fab-062 (as printed once)
B1 showed a Kd [1] of 730 nM, a koff [2] of 0.0174 s⁻¹ and a kon [2] of 23700 M⁻¹ s⁻¹.

B2: mouse Fab (34D10) (Fab, V domains shown)
VH: EVKLVESGGGLVKPGGSLKLSCAASGFTFSAYAMSWVRQTPEKRLEWVASISSGGTTYYPDSVKRRFTISRDNARNILYLQMSSLRSEDTAMYYCTRGGDYGYALDYWGQGTSVTVSS
VL: ENVLTQSPAIMSASLGEKVTMSCRASSSVNYMYWYQQKSDASPKLWIYYTSNLAPGVPARFSGSGSGNSYSLTISSMEGEDAATYYCQQFSSSPWTFGGGTKLEIK
notes: Fab; also called mouse 34D10 Fab
With B2 the Kd [3] was 2.8 nM.

B3: humanized 34D10 Fab L0/H2 (Fab, V domains shown)
VH: EVQLVESGGGLVKPGGSLRLSCAASGFTFSAYAMSWVRQAPGKGLVWVASISSGGTTYYPDSVKRQFTISRDNAKNTLYLQMNSLRAEDTAVYYCTRGGDYGYALDYWGQGTLVTVSS
VL: EIVMTQSPATLSVSPGERATLSCRASSSVNYMYWYQQKPGQAPRLLIYYTSNLAPGIPARFSGSGSGTEFTLTISSLQSEDFAVYYCQQFSSSPWTFGQGTKVEIK
notes: Fab; also called VL0/VH2
Work on B3 yielded a Kd [3] of 2.8 nM, a Kd [4] of 155 nM and a koff [5] of 0.0563 s⁻¹.

B4: humanized 34D10 Fab L1/H3 (Fab, V domains shown)
VH: EVQLVQSGGGLVKPGESLRLSCAASGFTFSAYAMSWVRQAPGKGLEWVASISSGGTTYYPDSVKRRFTISRDNAKNTLYLQMNSLRAEDTAVYYCTRGGDYGYALDYWGQGTLVTVSS
VL: EIVLTQSPATLSVSPGERATLSCRASSSVNYMYWYQQKPGQAPRLLIYYTSNLAPGVPARFSGSGSGTEFTLTISSLQSEDFAVYYCQQFSSSPWTFGQGTKVEIK
notes: Fab; only variable domains are tied by name; also called VL1/VH3
Work on B4 yielded a Kd [3] of 110 nM.

B5: affinity matured h34D10 Fab VH121/VL0 (Fab, V domains shown)
VH: EVQLVESGGGLVKPGGSLRLSCAASGFTFSAYAMSWVRQAPGEGLVWVASISSGGTTYYPDSVKRQFTISRDNAKNTLYLQMNSLRAEDTAVYYCTRGGDYGYALDYWGQGTLVTVSS
VL: EIVMTQSPATLSVSPGERATLSCRASSSVNYMYWYQQKPGQAPRLLIYYTSNLAPGIPARFSGSGSGTEFTLTISSLQSEDFAVYYCQQFSSSPWTFGQGTKVEIK
notes: Yeast-purified Fab
With B5 the Kd [4] was 230 nM and the koff [5] was 0.0494 s⁻¹.

B6: affinity matured h34D10 Fab VH120/VL0 (Fab, V domains shown)
VH: EVQLVESGGGLVEPGGSLRLSCAASGFTFSAYAMSWVRQAPGKGLVWVASISSGGTTYYPDSVKRQFTISRDNAKNTLYLQMNSLRAEDTAVYYCTRGGDYGYALDYWGQGTLVTVSS
VL: EIVMTQSPATLSVSPGERATLSCRASSSVNYMYWYQQKPGQAPRLLIYYTSNLAPGIPARFSGSGSGTEFTLTISSLQSEDFAVYYCQQFSSSPWTFGQGTKVEIK
notes: Yeast-purified Fab
In the case of B6, the Kd [4] is reported as 240 nM and the koff [5] is reported as 0.0492 s⁻¹.

B7: humanized 34D10 Fab L0/H5 (Fab, V domains shown)
VH: EVKLVESGGGLVKPGGSLRLSCAASGFTFSAYAMSWVRQAPGKGLEWVASISSGGTTYYPDSVKRRFTISRDNARNTLYLQMNSLRAEDTAVYYCTRGGDYGYALDYWGQGTLVTVSS
VL: EIVMTQSPATLSVSPGERATLSCRASSSVNYMYWYQQKPGQAPRLLIYYTSNLAPGIPARFSGSGSGTEFTLTISSLQSEDFAVYYCQQFSSSPWTFGQGTKVEIK
notes: Fab; also called VL0/VH5
B7 gave a Kd [3] of 5.3 nM.
